# pKd: −log10 of the molar value.
# Target: MavC, wild type (Legionella pneumophila) (UniProt Q5ZTL4)
# Assay: ITC
substance,measurement,value
"Lpg2149, wild type (from UniProt Q5ZTL2 1-119) (natural protein)",pKd,9.24

# From article PMC7265302
